# Assay results taken from patent US20220073613A1, “ACTIVATABLE MASKED ANTI-CTLA4 BINDING PROTEINS” (Xilio Development, Inc., priority 2018, published 2022).
# Experiments:
# murine CTLA4-Fc = molecular target: T1, murine CTLA4-Fc (Mus musculus, UniProt P09793); experiment: ELISA binding to murine CTLA4-Fc, with MMP2 cleavage (Example 3A); conditions: MMP2, 37° C. overnight
# T1 construct: purchased R&D Systems
# Procedure: ELISA plates were coated overnight in TBS with murine CTLA4-Fc (R&D Systems) and then washed with TBS with 0.05% Tween 20, and blocked with 1% BSA in PBS followed by washing with TBS with Tween 20. Dilutions of parental anti-CTLA4 antibodies and masked anti-CTLA4 antibodies in PBS were allowed to bind to CTLA4 for 60 minutes before washing with TBS Tween 20. Binding was detected with anti-muKappa-HRP (Abcam) and Super Signal Pico Chemiluminescent Substrate. Masked ratio was determined from the EC50 precleavage masked anti-CTLA4 antibody to the EC50 for parental anti-CTLA4 antibody.
# Parental anti-CTLA4 antibodies and masked anti-CTLA4 antibodies were incubated with 6 nM of MMP2 (R&D Systems) in 150 mM NaCl, 50 mM Tris, pH 7.5, 10 mM CaCl2, 0.02% NP-40) at 37° C. overnight. Antibody dilutions were tested for binding to murine CTLA4-Fc by the ELISA described above and by reduced-SDS-PAGE analysis, using “Any Kd Stain-Free pre-cast polyacrylamide gels” (Bio-Rad).
# [1] = molecular target: murine CTLA4 (muCTLA4hsIgG protein); experiment: Low density antigen binding ELISA, with MMP2 activation (Example 3B)
# Procedure: All ELISA were performed in a manner substantially similar to the description below or generally consistent with methods known in the art. Polysterene 96-well microplates (Thermo Fisher Scientific) were coated with 3 ng muCTLA4hsIgG protein (Abcam) per well and stored overnight at 4° C. Plates were washed with 0.1% Tween in TBS (TBS-T), blocked with 1% BSA (Fisher) in PBS for 2 hours at 4° C., and washed with TBS-T. Serial dilutions of tested antibody in 0.05% Tween+1% BSA in PBS (PBS-TB) were added to the plate and incubated at room temperature for 1 hour. After washing with TBS-T, HRP-conjugated goat anti-mouse Kappa light chain antibody (Abcam) diluted 1:4000 in PBS-TB was applied to the wells and incubated at room temperature for 1 hour. Plates were washed with TBS-T, chemiluminescent HRP substrate was applied to plate, and luminescence was recorded using a spectrophotometer (Synergy HT, BioTek). Data was analyzed with GraphPad Prism, version 7.02.
# Parental anti-CTLA4 antibodies, masked anti-CTLA4 antibodies, and non-cleavable masked anti-CTLA4 antibodies were each diluted to 1 μM solution in cleavage buffer (150 mM NaCl; 50 mM Tris, pH 7.5; 10 mM CaCl2; 0.02% NP-40). Recombinant MMP2 (R&D Systems) activated with 1 mM p-aminophenylmercuric acetate […] for 1 hour at 37° C. was added to each antibody solution to a final concentration of 4 nM and incubated overnight at 37° C. […]
# MC38 tumors [2] = experiment: MC38 tumor eradication and T cell population analysis (Example 4A); format: in vivo, C57Bl/6 mice
# Procedure: C57Bl/6 mice with 50-100 mm^3 MC38 tumors were administered intraperitoneally a single dose of 200 μg of IgG2a control (BioXcel), parental anti-CTLA4 antibody reactive to murine CTLA4 (9D9.IgG2a, light chain comprising SEQ ID NO:237, heavy chain comprising SEQ ID NO:319), activatable masked anti-CTLA4 antibody reactive to murine CTLA4 (light chain comprising SEQ ID NO:238, heavy chain comprising SEQ ID NO:319), masked anti-CTLA4 antibody 1005 reactive to murine CTLA4 (light chain comprising SEQ ID NO:240, heavy chain comprising SEQ ID NO:319), or anti-CTLA4 antibody 1 cross-reactive with human CTLA4 and murine CTLA4 (light chain comprising SEQ ID NO:327, heavy chain comprising SEQ ID NO:366). Body weight and tumor size were measured biweekly.
# C57Bl/6 mice with 50-100 mm^3 MC38 tumors were dosed with three […] doses on day 1, 4, and 8 with IgG2a control (BioXcel), parental anti-CTLA4 antibody (9D9.IgG2a, light chain comprising SEQ ID NO:237, heavy chain comprising SEQ ID NO:319 masked anti-CTLA4 antibody 2 (light chain comprising SEQ ID NO:238, heavy chain comprising SEQ ID NO:319), masked anti-CTLA4 antibody 1005 (light chain comprising SEQ ID NO:240, heavy chain comprising SEQ ID NO:319), or anti-CTLA4 antibody 1 cross-reactive with human CTLA4 and murine CTLA4 (light chain comprising SEQ ID NO:327, heavy chain comprising SEQ ID NO:366). On day 9, mice were sacrificed and tumors were dissociated using gentleMACS™ protocol “Tumor Dissociation Kit” (Milteni) and filtered through a 70 micron cell strainer and rinsed twice in PBS/2.5% FBS buffer to remove enzymatic buffer. […] and spleen cells were dissociated by gently grinding the tissue across a mesh. Red blood cells were lysed with ACK buffer (Thermo Fisher) prior to staining of the cells. Staining of cells was with fluorescently labeled anti-CD45 (BioLegend), anti-CD3 (BioLegend), anti-CD4 (BioLegend), anti-CD8 (BD Biosciences), anti-CD25 (BioLegend). Prior to staining with anti-FoxP3 (eBioscience), and anti-Ki67 (eBioscience) the cells were permeabilized. Stained cells were analyzed by fluorescent activate cell sorting (FACS) for the percentages of CD4+, CD8+, and CD25 Foxp3+(Tregs) cells of the live (Live/Dead Aqua purchased from Life) CD45 positive cells, as well as the percentage of these three cell populations that were Ki67 positive, a marker of cell proliferation.
# MC38 tumors [3] = experiment: MC38 mouse colorectal carcinoma model, tumor and Treg analysis (Example 4B); format: in vivo, C57BL/6 mice
# Procedure: The effects of activatable masked anti-CTLA4 antibodies on tumor growth as well as immune parameters in the tumor and in the periphery were investigated using a MC38 mouse colorectal carcinoma model, previously shown to respond to treatment with the 9D9 antibody. See Peggs K. S. et al., J Exp Med., 206:1717-1725, (2009) and Selby M. J., et al., Cancer Immunol Res., 1:32-42, (2013).
# To assess anti-tumor efficacy, antibodies formulated in PBS were administered intraperitoneally (i.p.) on day 1 post-randomization at […] per dose in a volume of ≤250 μL. Tumor volumes were determined twice weekly. All mice were monitored individually and sacrificed upon either tumor volume reaching 1500 mm3 or 45 days post-randomization. To assess biological function of antibodies on regulatory T cells (Tregs) by FACS analysis as described below, tumor-bearing mice were administered antibody intraperitoneally on days 1, 4, and 8 post-randomization at […] per dose in a volume of ≤250 μL. The control antibody was muIgG2a (BioXcell). All mice were sacrificed on day 9; tumor and spleen were harvested for FACS analysis.
# Mouse tumor samples were dissociated according to standard protocol by Tumor Dissociation Kit (gentleMACS) and passed through a 70 μm cell strainer. Spleen samples were dissociated with the back of a syringe in a 70 μm cell strainer. Red blood cells were lysed with ACK buffer (Lonza). Final cell suspensions were washed and resuspended in Staining Buffer (PBS pH 7.4, 2.5% FBS, 0.09% NaN3) at 2×10^7 cells/mL. Cells were treated with Mu Trustain fcX (BioLegend) to block Fc receptors prior to being stained with antibodies against CD45 (BioLegend), CD3 (BioLegend), CD4 (BioLegend), CD8 (BD Biosciences), CD25 (BioLegend), and Live/Dead Aqua (ThermoFisher). For intracellular staining, cells were fixed, permeabilized, and stained with antibodies against FoxP3 (eBioscience) and Ki-67 (eBioscience). Single color stains and FMOs were run for gating purposes.
# [4] = multi-dose, compared to parental antibody (9D9.IgG2a)
# murine CTLA4 (muCTLA4hsIgG protein), sequence (P09793 36-161 limits assumed): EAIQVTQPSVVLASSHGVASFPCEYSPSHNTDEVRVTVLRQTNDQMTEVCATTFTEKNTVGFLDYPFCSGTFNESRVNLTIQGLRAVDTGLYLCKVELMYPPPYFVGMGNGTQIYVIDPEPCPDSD
# T1 sequence (P09793 with tags, fused parts or gaps limits assumed): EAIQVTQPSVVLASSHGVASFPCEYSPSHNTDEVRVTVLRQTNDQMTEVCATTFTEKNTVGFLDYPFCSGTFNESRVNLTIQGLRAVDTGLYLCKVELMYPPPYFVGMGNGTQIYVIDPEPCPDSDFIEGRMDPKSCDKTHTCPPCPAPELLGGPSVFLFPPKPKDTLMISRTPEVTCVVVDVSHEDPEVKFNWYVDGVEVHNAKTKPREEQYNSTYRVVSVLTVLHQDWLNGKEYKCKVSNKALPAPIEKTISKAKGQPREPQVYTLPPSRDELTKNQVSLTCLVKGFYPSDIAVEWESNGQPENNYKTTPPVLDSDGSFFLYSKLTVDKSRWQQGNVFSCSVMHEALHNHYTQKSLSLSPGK
molecule,measurement,setting,value
"activatable masked anti-CTLA4 antibody: 9D9 masked with CNLIVEGHC via MMP2/7/9 cleavable linker; light chain SEQ ID NO:238, heavy chain SEQ ID NO:319 (antibody) heavy: EAKLQESGPVLVKPGASVKMSCKASGYTFTDYYMNWVKQSHGKSLEWIGVINPYNGDTSYNQKFKGKATLTVDKSSSTAYMELNSLTSEDSAVYYCARYYGSWFAYWGQGTLITVSSAKTTAPSVYPLAPVCGDTTGSSVTLGCLVKGYFPEPVTLTWNSGSLSSGVHTFPAVLQSDLYTLSSSVTVTSSTWPSQSITCNVAHPASSTKVDKKIEPRGPTIKPCPPCKCPAPNLLGGPSVFIFPPKIKDVLMISLSPIVTCVVVDVSEDDPDVQISWFVNNVEVHTAQTQTHREDYNSTLRVVSALPIQHQDWMSGKEFKCKVNNKDLPAPIERTISKPKGSVRAPQVYVLPPPEEEMTKKQVTLTCMVTDFMPEDIYVEWTNNGKTELNYKNTEPVLDSDGSYFMYSKLRVEKKNWVERNSYSCSVVHEGLHNHHTTKSFSRTPGK light: ACNLIVEGHCGGSVPLSLYSGGGDIVMTQTTLSLPVSLGDQASISCRSSQSIVHSNGNTYLEWYLQKPGQSPKLLIYKVSNRFSGVPDRFSGSGSGTDFTLKISRVEAEDLGVYYCFQGSHVPYTFGGGTKLEIKRADAAPTVSIFPPSSEQLTSGGASVVCFLNNFYPKDINVKWKIDGSERQNGVLNSWTDQDSKDSTYSMSSTLTLTKDEYERHNSYTCEATHKTSTSPIVKSFNRNEC",binding to murine CTLA4 after protease activation,murine CTLA4-Fc,fully restored binding
same,EC50,[1]; treated with recombinant MMP2,0.29 ± 0.03 nM
same,fold lower binding to murine CTLA4 as compared to parental anti-CTLA4 antibody,"[1]; without protease, listed as Masked 9D9",approximately 156 fold
same,"proliferation of CD4+ cells in the periphery (spleen), % Ki67+",MC38 tumors [2]; [4],reduced proliferation
same,"proliferation of CD8+ T cells in the periphery (spleen), % Ki67+",MC38 tumors [2]; [4],reduced proliferation
same,tumor volume,MC38 tumors [2]; single dose of 200 μg intraperitoneally,equivalent efficacy in reducing tumor volume
same,regulatory T lymphocytes (Tregs) population in the tumor,"MC38 tumors [2]; three doses on day 1, 4, and 8, day 9",preferentially depleted
same,proliferating (Ki67+ FOXP3+) Tregs in the spleens,"MC38 tumors [3]; doses on days 1, 4, and 8, 24 hours after last dose",marginal increases
same,intratumoral Treg abundance,"MC38 tumors [3]; doses on days 1, 4, and 8, 24 hours after last dose, flow cytometry",as effective in reducing Tregs as parental anti-CTLA4 antibody
same,growth of subcutaneously implanted MC38 tumors,MC38 tumors [3]; i.p. on day 1 post-randomization,induced tumor regression
